{
  "source": "patent US20190298830A1",
  "about": "(SUZHOU GALAXY BIOPHARMA, published 2019)",
  "experiment_in_all_cases": "cell-based or functional assay",
  "key": {"[1]": {"target": "T1, E2 envelope protein on HCV euvirus (HCVcc) particles, strain PR79 (1b) (Hepatitis C virus strain PR79 (1b))"}, "[2]": {"target": "T2, E2 envelope protein on HCV euvirus (HCVcc) particles, strain JFH1 (2a) (Hepatitis C virus strain JFH1 (2a))"}, "[3]": {"target": "T3, E2 envelope protein on HCV euvirus (HCVcc) particles, strain D183 (2a) (Hepatitis C virus strain D183 (2a))"}, "[4]": {"target": "E2 envelope protein on HCV euvirus particles, strain PR52B6M (1b) (Hepatitis C virus strain PR52B6M (1b))"}, "[5]": {"target": "E2 envelope protein on HCV euvirus (HCVcc) particles, strain PR52 (1b) (Hepatitis C virus strain PR52 (1b))"}, "[6]": {"target": "E2 envelope protein on HCV euvirus (HCVcc) particles, strain PR26 (1b) (Hepatitis C virus strain PR26 (1b))"}, "[7]": {"target": "E2 envelope protein on HCV euvirus (HCVcc) particles, strain Con1 (1b) (Hepatitis C virus strain Con1 (1b))"}, "[8]": {"target": "T1, E2 envelope protein on HCV euvirus …", "remark": "listed apart in the source"}, "[9]": {"target": "T2, E2 envelope protein on HCV euvirus …", "remark": "listed apart in the source"}, "[10]": {"target": "E2 envelope protein on HCV euvirus (HCVcc) particles, strain PR63 (2a) (Hepatitis C virus strain PR63 (2a))"}, "[11]": {"target": "T3, E2 envelope protein on HCV euvirus …", "remark": "listed apart in the source"}, "[12]": {"target": "E2 envelope protein on HCV euvirus (HCVcc) particles, strain J8 (2b) (Hepatitis C virus strain J8 (2b))"}, "[13]": {"target": "E2 envelope protein on HCV euvirus (HCVcc) particles, strain S52 (3a) (Hepatitis C virus strain S52 (3a))"}, "[14]": {"target": "E2 envelope protein on HCV euvirus (HCVcc) particles, strain SA13 (5a) (Hepatitis C virus strain SA13 (5a))"}, "[15]": {"target": "E2 envelope protein on HCV euvirus (HCVcc) particles, strain HK6a (6a) (Hepatitis C virus strain HK6a (6a))"}},
  "data": [
    {"binder": "human monoclonal antibody 8D6 (antibody, V domains shown) VH: EVQLVQSGSELKKPGASLKLSCKASGYTYITPAMNWVRQAPGHGLEWMGGINTNTGNPTYAQGFAGRFVFSWDTSVSTAYLHISSLKTEDTAVYYCADTRIFSCRRGTCYGGFDVWGQGTMVTVSS VL: DIQMTQSPSSLSASVGDRITITCRASQSISNFLNWFQHRPGKAPKLLIYGATILQSGVPSRFSGSGSGTDFTLTISSLQPEDFATYYCQQSDSSTYIFGQGTKVEIK", "values": [
      {"measurement": "inhibition rate of HCV euvirus, at antibody concentration higher than 0.4 µg/ml", "setting": "[1]", "value": "> 90", "unit": "%"},
      {"measurement": "inhibition rate of HCV euvirus, at antibody concentration higher than 0.4 µg/ml", "setting": "[2]", "value": "> 90", "unit": "%"},
      {"measurement": "inhibition rate of HCV euvirus, at antibody concentration higher than 0.4 µg/ml", "setting": "[3]", "value": "> 90", "unit": "%"},
      {"measurement": "inhibition rate of HCV euvirus, at antibody concentration higher than 0.4 µg/ml", "setting": "[4]", "value": "> 90", "unit": "%"},
      {"measurement": "IC50 (µg/ml), micro neutralization of HCV euvirus (NS5A-positive foci in Huh-7.5 cells)", "setting": "[5]", "value": "< 0.08", "unit": "µg/mL"},
      {"measurement": "IC50 (µg/ml), micro neutralization of HCV euvirus (NS5A-positive foci in Huh-7.5 cells)", "setting": "[6]", "value": 0.412, "unit": "µg/mL"},
      {"measurement": "IC50 (µg/ml), micro neutralization of HCV euvirus (NS5A-positive foci in Huh-7.5 cells)", "setting": "[7]", "value": 2.43, "unit": "µg/mL"},
      {"measurement": "IC50 (µg/ml), micro neutralization of HCV euvirus (NS5A-positive foci in Huh-7.5 cells)", "setting": "[8]", "value": "< 0.08", "unit": "µg/mL"},
      {"measurement": "IC50 (µg/ml), micro neutralization of HCV euvirus (NS5A-positive foci in Huh-7.5 cells)", "setting": "[9]", "value": 0.003, "unit": "µg/mL"},
      {"measurement": "IC50 (µg/ml), micro neutralization of HCV euvirus (NS5A-positive foci in Huh-7.5 cells)", "setting": "[10]", "value": "< 0.016", "unit": "µg/mL"},
      {"measurement": "IC50 (µg/ml), micro neutralization of HCV euvirus (NS5A-positive foci in Huh-7.5 cells)", "setting": "[11]", "value": "< 0.08", "unit": "µg/mL"},
      {"measurement": "IC50 (µg/ml), micro neutralization of HCV euvirus (NS5A-positive foci in Huh-7.5 cells)", "setting": "[12]", "value": 10, "unit": "µg/mL"},
      {"measurement": "IC50 (µg/ml), micro neutralization of HCV euvirus (NS5A-positive foci in Huh-7.5 cells)", "setting": "[13]", "value": 0.01, "unit": "µg/mL"},
      {"measurement": "IC50 (µg/ml), micro neutralization of HCV euvirus (NS5A-positive foci in Huh-7.5 cells)", "setting": "[14]", "value": 0.087, "unit": "µg/mL"},
      {"measurement": "IC50 (µg/ml), micro neutralization of HCV euvirus (NS5A-positive foci in Huh-7.5 cells)", "setting": "[15]", "value": 0.0015, "unit": "µg/mL"}
    ]}
  ]
}
